Experimental data reported in paper PMC3722096, “Crystal Structure of the N-Acetyltransferase Domain of Human N-Acetyl-L-Glutamate Synthase in Complex with N-Acetyl-L-Glutamate Provides Insights into Its Catalytic and Regulatory Mechanisms” (PLoS ONE, 2013).
One block for each molecule: values may come before it.

Legend:
[1] = target: NAT domain of mouse NAGS (mouse); assay: SEC; analytic gel filtration, Superdex 200 HR 10/30; 100 mM NaH2PO4 pH 7.4, 150 mM NaCl, 10% glycerol, 1 mM β-mercaptoethanol; weights from a standard curve
[2] = target: the molecule itself; assay: cross-linking; dimethyl suberimidate (4.5 µg) or suberic acid bis(3-sulfo-N-hydroxysuccinimide ester) sodium salt (9.0 µg), 10 µl of 200 mM triethanolamine pH 8.25, three hours at 298 K; SDS-PAGE, Coomassie (mNAGS) or silver (hNAGS) stain
[3] = target: the molecule itself; assay: SEC; analytic gel filtration, Superdex 200 HR 10/30; 100 mM NaH2PO4 pH 7.4, 150 mM NaCl, 10% glycerol, 1 mM β-mercaptoethanol; weights from a standard curve

stoichiometry N [1]: 2
Molecule: NAT domain of mouse NAGS (domain or fragment)

B1: complete mouse N-acetylglutamate synthase (enzyme, UniProt Q8R4H7 19-527, looked up)
chain: LRSPGGPGGSRRLSGSARRRGAKSASPGRRLSTARAHAEDAEGAKGRVQSPAVEEPSWTPLPTPLESPAPPAGRSLVQRDIQAFLNQCGASPGEARHWLTQFQTCYHSVDKPFAVMEVDEEVIRCPQAVSRLAFALAFLQRMDMKPLVVLGLPTPTAPSGCLSFWEAKAQLAQSCKVLVDELRHNAATAVPFFGGGSVLSAAEPAPHASYGGIVAVETDLLQWCLESNSIPILCPIGETAARRSVLLDSLEVTASLAKALQPTKIIFLNNSGGLRNNSQKILSNVNLPADLDLVTNAEWLSIKERQQIRLIVDVLSRLPHYSSAVITAASTLLTELFSNKGCGTLFKNAERMLRVRNLDSLDQGRLVNLVNASFGKKLREDYLESLRPRLHSIYVSEGYNAAAILTVEPVLGGTPYLDKFVVSSSRQGQGSGQMLWECLRRDLQTLFWRSRVTNPINPWYFKHSDGSFSNKQWIFFWFGLADIRDSYELVNHAKGLPDSFCKPASDPGS
notes: N-acetylglutamate synthase (NAGS, EC 2.3.1.1), mouse; the printed tetramer weight of 195.8 kDa gives 48.95 kDa a subunit; also called mNAGS; mouse NAGS
stoichiometry N [2]: 4

B2: human NAGS N-acetyltransferase domain (residues 377-534), as used in gel filtration (domain or fragment, UniProt Q8N159 377-534, looked up)
chain: MLRVRSLDKLDQGRLVDLVNASFGKKLRDDYLASLRPRLHSIYVSEGYNAAAILTMEPVLGGTPYLDKFVVSSSRQGQGSGQMLWECLRRDLQTLFWRSRVTNPINPWYFKHSDGSFSNKQWIFFWFGLADIRDSYELVNHAKGLPDSFHKPASDPGS
notes: N-acetyltransferase (NAT) domain of human N-acetylglutamate synthase, residues 377-534; also called hNAT; hNAT domain
stoichiometry N [3]: 2

B3: complete human N-acetylglutamate synthase (enzyme, UniProt Q8N159 19-534, looked up)
chain: LRGRGGTGGARRLSCGARRRAARGTSPGRRLSTAWSQPQPPPEEYAGADDVSQSPVAEEPSWVPSPRPPVPHESPEPPSGRSLVQRDIQAFLNQCGASPGEARHWLTQFQTCHHSADKPFAVIEVDEEVLKCQQGVSSLAFALAFLQRMDMKPLVVLGLPAPTAPSGCLSFWEAKAQLAKSCKVLVDALRHNAAAAVPFFGGGSVLRAAEPAPHASYGGIVSVETDLLQWCLESGSIPILCPIGETAARRSVLLDSLEVTASLAKALRPTKIIFLNNTGGLRDSSHKVLSNVNLPADLDLVCNAEWVSTKERQQMRLIVDVLSRLPHHSSAVITAASTLLTELFSNKGSGTLFKNAERMLRVRSLDKLDQGRLVDLVNASFGKKLRDDYLASLRPRLHSIYVSEGYNAAAILTMEPVLGGTPYLDKFVVSSSRQGQGSGQMLWECLRRDLQTLFWRSRVTNPINPWYFKHSDGSFSNKQWIFFWFGLADIRDSYELVNHAKGLPDSFHKPASDPGS
notes: N-acetylglutamate synthase (NAGS, EC 2.3.1.1), human; the printed tetramer weight of 202.4 kDa gives 50.6 kDa a subunit; also called hNAGS; human NAGS
stoichiometry N [2]: 4
